Test results reported in paper PMC3394720.

Target: MCMV nuclear capsids (murine cytomegalovirus (MCMV) | murine cytomegalovirus (MCMV), Smith strain)
Assay: immunoelectron microscopy of purified nuclear capsids; nuclear capsids purified on a sucrose gradient from infected cells, adsorbed on grids, rabbit GFP antiserum and protein A-gold (10 nm); gold beads per capsid counted; WT capsids as background

Substance: S-GFP-SCP fusion protein expressed ectopically from recombinant MCMV
- gold beads per capsid (anti-GFP immunogold) (gold beads per capsid): 15
